Results from patent publication US20240207464A1.

Legend:
[1] = target: Protein G (Dynabeads Protein G, Thermo Fisher Scientific) (UniProt P19909); assay: immunoprecipitation with Dynabeads Protein G after storage in rat plasma at 37 C, 7 day point
[2] = target: Protein G (Dynabeads Protein G, Thermo Fisher Scientific) (UniProt P19909); assay: immunoprecipitation with Dynabeads Protein G after storage in monkey plasma at 37 C, 0 day point
[3] = target: Protein G (Dynabeads Protein G, Thermo Fisher Scientific) (UniProt P19909); assay: immunoprecipitation with Dynabeads Protein G after storage in human plasma at 37 C, 1 day point
[4] = target: Protein G (Dynabeads Protein G, Thermo Fisher Scientific) (UniProt P19909); assay: immunoprecipitation with Dynabeads Protein G after storage in monkey plasma at 37 C, 7 day point
[5] = target: Protein G (Dynabeads Protein G, Thermo Fisher Scientific) (UniProt P19909); assay: immunoprecipitation with Dynabeads Protein G after storage in rat plasma at 37 C, 0 day point
[6] = target: Protein G (Dynabeads Protein G, Thermo Fisher Scientific) (UniProt P19909); assay: immunoprecipitation with Dynabeads Protein G after storage in monkey plasma at 37 C, 1 day point
[7] = target: Protein G (Dynabeads Protein G, Thermo Fisher Scientific) (UniProt P19909); assay: immunoprecipitation with Dynabeads Protein G after storage in human plasma at 37 C, 0 day point; share of radioactivity bound to Protein G
[8] = target: Protein G (Dynabeads Protein G, Thermo Fisher Scientific) (UniProt P19909); assay: immunoprecipitation with Dynabeads Protein G after storage in human plasma at 37 C, 14 day point
[9] = target: Protein G (Dynabeads Protein G, Thermo Fisher Scientific) (UniProt P19909); assay: immunoprecipitation with Dynabeads Protein G after storage in mouse plasma at 37 C, 7 day point
[10] = target: Protein G (Dynabeads Protein G, Thermo Fisher Scientific) (UniProt P19909); assay: immunoprecipitation with Dynabeads Protein G after storage in mouse plasma at 37 C, 1 day point
[11] = target: Protein G (Dynabeads Protein G, Thermo Fisher Scientific) (UniProt P19909); assay: immunoprecipitation with Dynabeads Protein G after storage in human plasma at 37 C, 7 day point
[12] = target: Protein G (Dynabeads Protein G, Thermo Fisher Scientific) (UniProt P19909); assay: immunoprecipitation with Dynabeads Protein G after storage in rat plasma at 37 C, 1 day point
[13] = target: Protein G (Dynabeads Protein G, Thermo Fisher Scientific) (UniProt P19909); assay: immunoprecipitation with Dynabeads Protein G after storage in mouse plasma at 37 C, 0 day point

radioconjugate (Example 1): conjugate with rituximab by using 225Ac-labeled DOTAGA-DBCO (antibody)
recovery rate (%) by beads [1]: 90.4% | recovery rate (%) by beads [2]: 92.9% | recovery rate (%) by beads [3]: 90.5% | recovery rate (%) by beads [4]: 90.5% | recovery rate (%) by beads [5]: 97.4% | recovery rate (%) by beads [6]: 90.4% | recovery rate (%) by beads [7]: 95% | recovery rate (%) by beads [8]: 76.4% | recovery rate (%) by beads [9]: 93.1% | recovery rate (%) by beads [10]: 95% | recovery rate (%) by beads [11]: 81% | recovery rate (%) by beads [12]: 94.8% | recovery rate (%) by beads [13]: 98.1%
